pKd: −log10 of the molar value. Where two headings read alike, the source gives them in different places.

Common to all, as to experiment: SPR
Experiment [1] addresses CRIg-Mut-1 (CRIg Ig V domain mutant K15R/K36R/K62R/K72R/K110R), His-tagged (human).
Experiment [2] deals with CRIg-Mut-2 (CRIg Ig V domain mutant K15R/K36R/K62Q/K72R/K110R), His-tagged (human).
For experiment [3], the target named is wild-type CRIg Ig V domain, His-tagged (human) (UniProt Q9Y279).
For experiment [4] the target is unchanged. This is another data set of the same source.

In experiment [1], “C3c (from UniProt P01024 23-667; P01024 749-954; P01024 1321-1663) (domain or fragment)” gave a Ka-1 (two-state model, first step, association rate) of 12000 M⁻¹ s⁻¹; a Ka-2 (two-state model, second step, forward rate) of 0.0052 s⁻¹; a negative logarithm of the Kd (pKd) of 5.56; a Kd-1 (two-state model, first step, dissociation rate) of 0.0491 s⁻¹. Also, the Kd-2 (two-state model, second step, reverse rate) in experiment [1] was 0.00928 s⁻¹. In experiment [2], this substance gave a Ka-1 (two-state model, first step, association rate) of 14800 M⁻¹ s⁻¹; a Ka-2 (two-state model, second step, forward rate) of 0.00262 s⁻¹; a pKd of 5.95; a Kd-1 (two-state model, first step, dissociation rate) of 0.0271 s⁻¹. The substance further registered a Kd-2 (two-state model, second step, reverse rate) in experiment [2] of 0.00414 s⁻¹.

As for “iC3b (from UniProt P01024 23-667; P01024 1321-1663) (domain or fragment)”, in experiment [3], the Ka-1 (two-state model, first step, association rate) was 35800 M⁻¹ s⁻¹; the Ka-2 (two-state model, second step, forward rate) turned out to be 0.00463 s⁻¹; the pKd is 7.98; the Kd-1 (two-state model, first step, dissociation rate) was 0.0168 s⁻¹. For the same substance, in experiment [3], the Kd-2 (two-state model, second step, reverse rate) turned out to be 0.000105 s⁻¹. In experiment [1], this substance showed a Ka-1 (two-state model, first step, association rate) of 7100 M⁻¹ s⁻¹; a Ka-2 (two-state model, second step, forward rate) of 0.00589 s⁻¹; a pKd of 6.94; a Kd-1 (two-state model, first step, dissociation rate) of 0.0209 s⁻¹. For the same substance, the Kd-2 (two-state model, second step, reverse rate) in experiment [1] is 0.000231 s⁻¹. For the same substance, in experiment [2], the Ka-1 (two-state model, first step, association rate) was determined as 10600 M⁻¹ s⁻¹; the Ka-2 (two-state model, second step, forward rate) was found to be 0.00469 s⁻¹; the pKd is 7.07; the Kd-1 (two-state model, first step, dissociation rate) turned out to be 0.0191 s⁻¹. The Kd-2 (two-state model, second step, reverse rate) in experiment [2] was found to be 0.000227 s⁻¹. In experiment [4], this substance showed a Ka-1 (two-state model, first step, association rate) of 16000 M⁻¹ s⁻¹; a Ka-2 (two-state model, second step, forward rate) of 0.00376 s⁻¹; a pKd of 7.17; a Kd-1 (two-state model, first step, dissociation rate) of 0.0207 s⁻¹. Moreover, in experiment [4], the Kd-2 (two-state model, second step, reverse rate) stood at 0.000206 s⁻¹.

In experiment [3], “C3b (from UniProt P01024 749-1663; P01024 749-1663) (domain or fragment)” showed a Ka-1 (two-state model, first step, association rate) of 25100 M⁻¹ s⁻¹; a Ka-2 (two-state model, second step, forward rate) of 0.00166 s⁻¹; a pKd of 7.33; a Kd-1 (two-state model, first step, dissociation rate) of 0.00714 s⁻¹. Also, the Kd-2 (two-state model, second step, reverse rate) in experiment [3] came out at 0.00533 s⁻¹. Further, in experiment [1], the pKd was 7.60, the koff came out at 0.000441 s⁻¹ and the kon came to 18200 M⁻¹ s⁻¹. In experiment [2], this substance gave a pKd of 7.79, a koff of 0.000203 s⁻¹ and a kon of 12600 M⁻¹ s⁻¹. Besides, in experiment [4], the pKd is 8.14, the koff worked out at 0.000125 s⁻¹ and the kon was found to be 17100 M⁻¹ s⁻¹.

Values taken from publication PMC10696418.
